Paper PMC12102759

B1: PEX5 peptide 110-125 (Peroxisomal targeting signal 1 receptor), 16-mer library wild type / PEX14 Pex14 (PEX14 PEX14, residues 16-84) (parent)
chain 1: ADLALSENWAQEFLAA
chain 2: TPGSENVLPREPLIATAVKFLQNSRVRQSPLATRRAFLKKKGLTDEEIDMAFQQSGTAADEPSSLGPAT
B2: PIP5K1C peptide 642-657 (Phosphatidylinositol 4-phosphate 5-kinase type-1 gamma), 16-mer library wild type / TLN1 PTB (TLN1 Phosphotyrosine-binding (PTB) domain, residues 309-401) (parent)
chain 1: TDERSWVYSPLHYSAQ
chain 2: GVSFFLVKEKMKGKNKLVPRLLGITKECVMRVDEKTKEVIQEWNLTNIKRWAASPKSFTLDFGDYQDGYYSVQTTEGEQIAQLIAGYIDIILK
B3: AMOTL2 peptide 64-79 (Angiomotin-like protein 2), 16-mer library wild type / TNKS ANK (TNKS 12 ANK repeats, residues 174-649) (parent)
chain 1: QVLQQATRQEPQGQEH
chain 2: TGVPAVSGALRELLEACRNGDVSRVKRLVDAANVNAKDMAGRKSSPLHFAAGFGRKDVVEHLLQMGANVHARDDGGLIPLHNACSFGHAEVVSLLLCQGADPNARDNWNYTPLHEAAIKGKIDVCIVLLQHGADPNIRNTDGKSALDLADPSAKAVLTGEYKKDELLEAARSGNEEKLMALLTPLNVNCHASDGRKSTPLHLAAGYNRVRIVQLLLQHGADVHAKDKGGLVPLHNACSYGHYEVTELLLKHGACVNAMDLWQFTPLHEAASKNRVEVCSLLLSHGADPTLVNCHGKSAVDMAPTPELRERLTYEFKGHSLLQAAREADLAKVKKTLALEIINFKQPQSHETALHCAVASLHPKRKQVTELLLRKGANVNEKNKDFMTPLHVAAERAHNDVMEVLHKHGAKMNALDTLGQTALHRAALAGHLQTCRLLLSYGSDPSIISLQGFTAAQMGNEAVQQILSESTPIRTSD
B4: RNF115 peptide 69-84 (E3 ubiquitin-protein ligase RNF115), 16-mer library wild type / MDM2 SWIB (MDM2 SWIB/MDM2 domain, residues 17-125) (parent)
chain 1: THFAELWGHLDHTMFF
chain 2: SQIPASEQETLVRPKPLLLKLLKSVGAQKDTYTMKEVLFYLGQYIMTKRLYDEKQQHIVYCSNDLLGDLFGVPSFSVKEHRKIYTMIYRNLVVVNQQESSDSGTSVSEN

Variants of: B1
Experiment: proteomic peptide phage display deep mutational scan (ProP-PD DMS): M13 P8 16-mer library selected against immobilised GST-tagged bait for four days (rounds), NGS of the eluted pools per day and pseudo-replica
Conditions: with PEX14 Pex14 (PEX14 PEX14, residues 16-84); bait immobilised on MaxiSorp plates (10 µg), library pre-cleared on GST, 2 h binding at 4 °C, five washes; one round per day, days 1-4; value from days 2 and 3; scale: average fractional NGS count over selection days 2 and 3

| Variant | screen value |
| --- | --- |
| chain 1 ADLALWENWAQEFLAA [chain 1 S6W] | 0 |
| chain 1 ADLALYENWAQEFLAA [chain 1 S6Y] | 0.000301 |
| chain 1 ADLALSENGAQEFLAA [chain 1 W9G] | 0 |
| chain 1 ADLALSENLAQEFLAA [chain 1 W9L] | 0 |
| chain 1 ADLALSENMAQEFLAA [chain 1 W9M] | 5.43e-05 |
| chain 1 ADLALSENPAQEFLAA [chain 1 W9P] | 0 |
| chain 1 ADLALSENQAQEFLAA [chain 1 W9Q] | 0 |
| chain 1 ADLALSENTAQEFLAA [chain 1 W9T] | 0 |
| chain 1 ADLALSENYAQEFLAA [chain 1 W9Y] | 0 |

Variants of: B2
Experiment: as above
Conditions: with TLN1 PTB (TLN1 Phosphotyrosine-binding (PTB) domain, residues 309-401); bait immobilised on MaxiSorp plates (10 µg), library pre-cleared on GST, 2 h binding at 4 °C, five washes; one round per day, days 1-4; value from days 2 and 3; keep out of graded; scale: average fractional NGS count over selection days 2 and 3

| Variant | screen value |
| --- | --- |
| chain 1 L11Q | 2.8e-05 |
| chain 1 W6H | 0 |
| chain 1 S9W | 0 |
| chain 1 L11D | 0 |
| chain 1 D2K | 0.000108 |
| chain 1 P10W | 8.28e-05 |
| chain 1 L11N | 8.93e-05 |
| chain 1 L11K | 8.99e-05 |
| chain 1 S9Q | 4.86e-05 |
| chain 1 W6Q | 0 |
| chain 1 A15K | 0 |
| chain 1 W6D | 0 |
| chain 1 W6G | 3.45e-05 |
| chain 1 S9V | 3.45e-05 |
| chain 1 A15Y | 9.95e-05 |
| chain 1 L11S | 3.05e-05 |
| chain 1 S9K | 0 |
| chain 1 R4I | 3.79e-05 |
| chain 1 S9Y | 5.79e-05 |
| chain 1 S9E | 6.87e-05 |
| chain 1 W6A | 2.49e-05 |
| chain 1 S9L | 0 |

Variants of: B3
Experiment: as above
Conditions: with TNKS ANK (TNKS 12 ANK repeats, residues 174-649); bait immobilised on MaxiSorp plates (10 µg), library pre-cleared on GST, 2 h binding at 4 °C, five washes; one round per day, days 1-4; value from days 2 and 3; keep out of graded; scale: average fractional NGS count over selection days 2 and 3

| Variant | screen value |
| --- | --- |
| chain 1 QVLQQATRQEPQWQEH [chain 1 G13W] | 0 |
| chain 1 QVLQQATRQWPQGQEH [chain 1 E10W] | 7.2e-05 |
| chain 1 QVLQQATRQEPRGQEH [chain 1 Q12R] | 4.06e-05 |
| chain 1 QVLQQATRQEPQIQEH [chain 1 G13I] | 0 |
| chain 1 QVLQQATRQEPQGQEF [chain 1 H16F] | 7.99e-05 |
| chain 1 QVLQQPTRQEPQGQEH [chain 1 A6P] | 4.91e-05 |
| chain 1 QVLQQARRQEPQGQEH [chain 1 T7R] | 0 |
| chain 1 QVLQQATRQEPQGQEG [chain 1 H16G] | 6.49e-05 |
| chain 1 QVLQQATRQEPKGQEH [chain 1 Q12K] | 5.93e-05 |
| chain 1 QVLQQATRIEPQGQEH [chain 1 Q9I] | 5.19e-05 |
| chain 1 QVLQWATRQEPQGQEH [chain 1 Q5W] | 6.13e-05 |
| chain 1 QVLQQATRQEDQGQEH [chain 1 P11D] | 0 |
| chain 1 QVLQQATRQEPQQQEH [chain 1 G13Q] | 0 |
| chain 1 QVWQQATRQEPQGQEH [chain 1 L3W] | 8.89e-05 |
| chain 1 QVLQQATRQEPQGQKH [chain 1 E15K] | 0 |
| chain 1 QVLQQKTRQEPQGQEH [chain 1 A6K] | 7.72e-05 |
| chain 1 QVLQQATIQEPQGQEH [chain 1 R8I] | 0 |
| chain 1 QVLQQATRQEQQGQEH [chain 1 P11Q] | 0 |
| chain 1 QVLQQATRQEPQGQGH [chain 1 E15G] | 6.84e-05 |

| Variant | screen value |
| --- | --- |
| chain 1 QVLQQATRQERQGQEH [chain 1 P11R] | 0 |
| chain 1 QVLQQATRQEGQGQEH [chain 1 P11G] | 0.000112 |
| chain 1 QVLQQATPQEPQGQEH [chain 1 R8P] | 8.36e-05 |
| chain 1 QVLQQATRQEPQGFEH [chain 1 Q14F] | 3.1e-05 |
| chain 1 QVLQGATRQEPQGQEH [chain 1 Q5G] | 2.86e-05 |
| chain 1 QVLQNATRQEPQGQEH [chain 1 Q5N] | 8.23e-05 |
| chain 1 QVLQQATRQRPQGQEH [chain 1 E10R] | 7.98e-05 |
| chain 1 QVLQQATRQDPQGQEH [chain 1 E10D] | 9.35e-05 |
| chain 1 QVLQQATRQEPQGQEK [chain 1 H16K] | 8.3e-05 |
| chain 1 QVLQQATFQEPQGQEH [chain 1 R8F] | 0 |
| chain 1 QVLQQATRGEPQGQEH [chain 1 Q9G] | 7.98e-05 |
| chain 1 QVLQQAKRQEPQGQEH [chain 1 T7K] | 7.17e-05 |
| chain 1 QVLQQATRQEIQGQEH [chain 1 P11I] | 5.08e-05 |
| chain 1 QVLQDATRQEPQGQEH [chain 1 Q5D] | 0.000115 |
| chain 1 QVLQQYTRQEPQGQEH [chain 1 A6Y] | 5.3e-05 |
| chain 1 QVLQQADRQEPQGQEH [chain 1 T7D] | 6.07e-05 |
| chain 1 QVLQQATRKEPQGQEH [chain 1 Q9K] | 4.55e-05 |
| chain 1 QVLQQATRQEPQGGEH [chain 1 Q14G] | 0.000146 |

Variants of: B4
Experiment: as above
Conditions: with MDM2 SWIB (MDM2 SWIB/MDM2 domain, residues 17-125); bait immobilised on MaxiSorp plates (10 µg), library pre-cleared on GST, 2 h binding at 4 °C, five washes; one round per day, days 1-4; value from days 2 and 3; keep out of graded; scale: average fractional NGS count over selection days 2 and 3

| Variant | screen value |
| --- | --- |
| chain 1 A4R | 5.64e-05 |
| chain 1 D11V | 5.15e-05 |
| chain 1 E5F | 4.65e-05 |
| chain 1 E5G | 0.00012 |
| chain 1 E5I | 1.29e-05 |
| chain 1 E5K | 0 |
| chain 1 E5L | 5.37e-05 |
| chain 1 E5M | 4.31e-05 |
| chain 1 E5P | 0 |
| chain 1 F3K | 0 |
| chain 1 F3M | 0 |
| chain 1 F3P | 0.000115 |
| chain 1 F15E | 5.35e-05 |
| chain 1 G8I | 3.49e-05 |
| chain 1 G8L | 6.83e-05 |
| chain 1 H9L | 3.74e-05 |
| chain 1 H9P | 0 |
| chain 1 H12R | 4.65e-05 |
| chain 1 H12W | 3.9e-05 |
| chain 1 H12Y | 4.94e-05 |

| Variant | screen value |
| --- | --- |
| chain 1 L6S | 0 |
| chain 1 L6T | 0 |
| chain 1 L10A | 0 |
| chain 1 L10E | 0 |
| chain 1 L10G | 0 |
| chain 1 L10P | 0 |
| chain 1 L10W | 0.000123 |
| chain 1 L10Y | 0 |
| chain 1 M14I | 5.94e-05 |
| chain 1 M14K | 7.54e-05 |
| chain 1 M14R | 6.33e-05 |
| chain 1 T1E | 8.39e-05 |
| chain 1 T1K | 5.86e-05 |
| chain 1 T1R | 1.6e-05 |
| chain 1 T13E | 4.86e-05 |
| chain 1 T13F | 3.43e-05 |
| chain 1 W7D | 0 |
| chain 1 W7E | 0 |
| chain 1 W7K | 0 |
| chain 1 W7N | 0 |
